No end group written: not given here.

Common to all, as to test: Kinase Profiling Assay
Type in all cases: biochemical
What all share (settings): peptide 100 μM

The target in test [1] is ALK(h) (Homo sapiens, UniProt Q9UM73). The essentials:
(§1)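 Scintillation counting quantifies radiolabeled, positively charged substrate retained on a negatively charged filter after kinase reaction with labeled ATP; inhibitor peptide present.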

The target of test [2] is AMPKα1(h) (Homo sapiens, UniProt Q13131). The method in brief: as §1
Chain of AMPKα1(h) (Q13131 whole entry): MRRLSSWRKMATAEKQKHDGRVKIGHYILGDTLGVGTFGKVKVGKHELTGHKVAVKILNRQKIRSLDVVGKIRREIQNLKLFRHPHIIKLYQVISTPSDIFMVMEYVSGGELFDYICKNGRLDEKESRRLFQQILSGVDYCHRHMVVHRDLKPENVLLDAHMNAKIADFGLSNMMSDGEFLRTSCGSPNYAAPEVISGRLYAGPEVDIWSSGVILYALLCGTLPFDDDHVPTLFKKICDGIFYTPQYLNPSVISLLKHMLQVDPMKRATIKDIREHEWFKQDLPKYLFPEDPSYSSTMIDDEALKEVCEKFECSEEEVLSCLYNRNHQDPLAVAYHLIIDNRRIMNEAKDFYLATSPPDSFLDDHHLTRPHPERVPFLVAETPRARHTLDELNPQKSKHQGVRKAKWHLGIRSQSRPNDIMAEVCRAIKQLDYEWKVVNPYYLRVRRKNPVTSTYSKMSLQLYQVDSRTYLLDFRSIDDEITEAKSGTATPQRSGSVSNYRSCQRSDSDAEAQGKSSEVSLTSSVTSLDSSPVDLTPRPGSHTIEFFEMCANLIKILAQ
Chain of AMPKα1(h) (Q9Y478 whole entry partner): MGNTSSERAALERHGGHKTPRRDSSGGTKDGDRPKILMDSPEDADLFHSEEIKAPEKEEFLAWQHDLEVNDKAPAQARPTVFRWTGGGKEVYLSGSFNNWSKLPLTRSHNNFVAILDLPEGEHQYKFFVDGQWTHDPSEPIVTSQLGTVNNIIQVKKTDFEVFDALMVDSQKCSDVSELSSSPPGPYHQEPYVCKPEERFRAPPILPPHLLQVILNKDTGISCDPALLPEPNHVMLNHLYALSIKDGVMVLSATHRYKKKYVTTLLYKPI
Chain of AMPKα1(h) (P54619 whole entry partner): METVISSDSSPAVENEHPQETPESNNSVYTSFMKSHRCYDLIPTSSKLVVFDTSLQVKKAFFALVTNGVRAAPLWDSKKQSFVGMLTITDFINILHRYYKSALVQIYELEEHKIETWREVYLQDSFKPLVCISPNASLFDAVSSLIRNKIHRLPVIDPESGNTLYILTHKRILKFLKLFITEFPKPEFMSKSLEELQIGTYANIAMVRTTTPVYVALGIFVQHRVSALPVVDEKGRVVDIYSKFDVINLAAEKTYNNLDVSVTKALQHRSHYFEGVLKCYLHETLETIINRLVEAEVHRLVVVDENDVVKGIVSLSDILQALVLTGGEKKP
For test [3], the target named is Abl(Y253F)(h) (Homo sapiens, UniProt P00519, Y253F). The method in brief: as §1
For test [4], the target named is T1, JNK2α2(h) (Homo sapiens, UniProt P45984).
T1 construct: purchased Millipore
The method in brief: as §1

Test [5] addresses T2, PKCι(h) (Homo sapiens, UniProt P41743).
T2 sequence (P41743 1-596): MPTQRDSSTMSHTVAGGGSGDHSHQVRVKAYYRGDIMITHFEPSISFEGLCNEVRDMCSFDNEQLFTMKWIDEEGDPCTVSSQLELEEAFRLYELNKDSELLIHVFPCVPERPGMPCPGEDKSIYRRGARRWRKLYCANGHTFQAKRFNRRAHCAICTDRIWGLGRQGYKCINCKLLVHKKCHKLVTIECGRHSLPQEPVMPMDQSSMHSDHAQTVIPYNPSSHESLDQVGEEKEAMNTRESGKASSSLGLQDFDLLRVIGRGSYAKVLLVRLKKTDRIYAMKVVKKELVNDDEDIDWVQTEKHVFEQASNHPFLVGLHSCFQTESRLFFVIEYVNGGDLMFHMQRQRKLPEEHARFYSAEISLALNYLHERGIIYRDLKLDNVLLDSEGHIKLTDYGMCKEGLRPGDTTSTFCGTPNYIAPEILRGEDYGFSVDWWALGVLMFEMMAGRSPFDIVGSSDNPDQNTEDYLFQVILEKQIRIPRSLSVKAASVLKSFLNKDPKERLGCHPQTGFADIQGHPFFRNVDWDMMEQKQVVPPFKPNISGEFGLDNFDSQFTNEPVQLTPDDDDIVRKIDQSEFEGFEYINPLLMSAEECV
The essentials: as §1

Test [6] has as its target PTK5(h) (Homo sapiens, UniProt P42685). The method in brief:
as §1

For test [7], the target named is T3, Tec(h) activated (Homo sapiens, UniProt P42680).
T3 construct: purchased Millipore
T3 sequence (P42680 1-631): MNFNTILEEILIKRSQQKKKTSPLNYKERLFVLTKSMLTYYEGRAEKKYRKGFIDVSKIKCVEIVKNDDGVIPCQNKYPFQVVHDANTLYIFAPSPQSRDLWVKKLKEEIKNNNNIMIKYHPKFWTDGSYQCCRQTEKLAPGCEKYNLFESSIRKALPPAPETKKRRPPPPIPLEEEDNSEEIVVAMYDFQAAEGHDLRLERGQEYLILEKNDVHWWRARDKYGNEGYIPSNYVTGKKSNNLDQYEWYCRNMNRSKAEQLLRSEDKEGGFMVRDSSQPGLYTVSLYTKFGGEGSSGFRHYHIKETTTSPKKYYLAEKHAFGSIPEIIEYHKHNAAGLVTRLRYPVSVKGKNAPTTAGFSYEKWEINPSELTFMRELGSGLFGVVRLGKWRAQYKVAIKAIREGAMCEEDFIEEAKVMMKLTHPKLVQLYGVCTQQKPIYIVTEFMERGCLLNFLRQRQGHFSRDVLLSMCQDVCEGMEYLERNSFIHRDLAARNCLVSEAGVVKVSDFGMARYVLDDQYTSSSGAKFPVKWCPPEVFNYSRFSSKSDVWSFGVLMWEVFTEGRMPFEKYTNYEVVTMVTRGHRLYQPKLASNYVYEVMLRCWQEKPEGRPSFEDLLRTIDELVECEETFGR
The essentials:
as §1

For test [8], the target named is T4, Bmx(h) (Homo sapiens, UniProt P51813).
T4 sequence (P51813 1-675): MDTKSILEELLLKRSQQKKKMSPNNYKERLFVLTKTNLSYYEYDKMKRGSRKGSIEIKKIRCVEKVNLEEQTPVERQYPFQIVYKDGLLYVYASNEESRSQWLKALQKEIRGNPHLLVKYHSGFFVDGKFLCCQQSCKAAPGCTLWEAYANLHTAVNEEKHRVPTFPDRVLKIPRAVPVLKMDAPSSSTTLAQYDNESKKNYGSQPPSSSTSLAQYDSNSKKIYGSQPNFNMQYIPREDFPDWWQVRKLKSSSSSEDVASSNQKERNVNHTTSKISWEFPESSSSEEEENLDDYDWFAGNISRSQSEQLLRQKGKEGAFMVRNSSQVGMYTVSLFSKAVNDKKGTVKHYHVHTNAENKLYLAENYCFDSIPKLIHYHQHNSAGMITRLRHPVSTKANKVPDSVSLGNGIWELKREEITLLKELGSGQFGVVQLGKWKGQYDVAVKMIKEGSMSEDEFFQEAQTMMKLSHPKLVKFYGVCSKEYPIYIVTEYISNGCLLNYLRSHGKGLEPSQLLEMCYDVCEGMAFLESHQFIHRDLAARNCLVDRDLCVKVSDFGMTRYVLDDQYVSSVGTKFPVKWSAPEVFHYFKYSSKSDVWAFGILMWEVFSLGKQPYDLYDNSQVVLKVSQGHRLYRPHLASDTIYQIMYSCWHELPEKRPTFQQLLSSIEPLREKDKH
The essentials: as §1

Test [9] deals with FAK(h) (Homo sapiens, UniProt Q05397). The essentials:
as §1

In test [10] the target is PKCη(h) (Homo sapiens, UniProt P24723). The method in brief:
as §1

Chain of PKCη(h) (P24723 whole entry): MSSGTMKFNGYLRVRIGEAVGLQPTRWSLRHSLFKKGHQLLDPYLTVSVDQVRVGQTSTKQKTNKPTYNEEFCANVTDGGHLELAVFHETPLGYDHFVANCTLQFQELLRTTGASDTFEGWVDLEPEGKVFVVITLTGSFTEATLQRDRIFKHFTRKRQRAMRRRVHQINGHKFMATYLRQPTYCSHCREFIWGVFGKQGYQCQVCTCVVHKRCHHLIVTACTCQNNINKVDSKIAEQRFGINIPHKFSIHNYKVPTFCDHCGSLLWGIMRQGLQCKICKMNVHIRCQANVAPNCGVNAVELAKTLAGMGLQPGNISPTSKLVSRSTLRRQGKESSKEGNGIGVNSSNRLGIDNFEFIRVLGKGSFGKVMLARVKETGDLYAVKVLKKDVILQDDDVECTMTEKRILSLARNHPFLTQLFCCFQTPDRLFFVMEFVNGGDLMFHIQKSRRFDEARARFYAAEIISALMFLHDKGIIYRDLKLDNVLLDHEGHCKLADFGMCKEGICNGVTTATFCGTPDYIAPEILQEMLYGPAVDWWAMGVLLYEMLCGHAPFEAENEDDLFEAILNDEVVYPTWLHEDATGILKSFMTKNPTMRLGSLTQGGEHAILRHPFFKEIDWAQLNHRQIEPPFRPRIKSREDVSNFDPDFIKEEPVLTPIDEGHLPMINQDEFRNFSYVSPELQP
Chain of PTK5(h) (P42685 whole entry): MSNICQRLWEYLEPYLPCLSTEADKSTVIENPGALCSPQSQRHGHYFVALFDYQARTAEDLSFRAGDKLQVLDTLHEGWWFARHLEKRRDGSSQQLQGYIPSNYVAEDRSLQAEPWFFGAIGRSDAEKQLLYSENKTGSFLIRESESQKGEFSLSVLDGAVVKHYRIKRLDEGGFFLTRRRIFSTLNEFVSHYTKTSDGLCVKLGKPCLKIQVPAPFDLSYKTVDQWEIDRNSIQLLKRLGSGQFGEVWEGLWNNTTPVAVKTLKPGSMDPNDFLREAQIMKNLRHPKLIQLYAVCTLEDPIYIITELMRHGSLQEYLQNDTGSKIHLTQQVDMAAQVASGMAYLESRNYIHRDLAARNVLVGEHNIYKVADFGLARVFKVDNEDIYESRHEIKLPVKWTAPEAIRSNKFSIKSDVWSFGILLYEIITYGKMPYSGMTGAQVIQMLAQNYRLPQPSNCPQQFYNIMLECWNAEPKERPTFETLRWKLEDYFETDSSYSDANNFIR
Chain of FAK(h) (Q05397 whole entry): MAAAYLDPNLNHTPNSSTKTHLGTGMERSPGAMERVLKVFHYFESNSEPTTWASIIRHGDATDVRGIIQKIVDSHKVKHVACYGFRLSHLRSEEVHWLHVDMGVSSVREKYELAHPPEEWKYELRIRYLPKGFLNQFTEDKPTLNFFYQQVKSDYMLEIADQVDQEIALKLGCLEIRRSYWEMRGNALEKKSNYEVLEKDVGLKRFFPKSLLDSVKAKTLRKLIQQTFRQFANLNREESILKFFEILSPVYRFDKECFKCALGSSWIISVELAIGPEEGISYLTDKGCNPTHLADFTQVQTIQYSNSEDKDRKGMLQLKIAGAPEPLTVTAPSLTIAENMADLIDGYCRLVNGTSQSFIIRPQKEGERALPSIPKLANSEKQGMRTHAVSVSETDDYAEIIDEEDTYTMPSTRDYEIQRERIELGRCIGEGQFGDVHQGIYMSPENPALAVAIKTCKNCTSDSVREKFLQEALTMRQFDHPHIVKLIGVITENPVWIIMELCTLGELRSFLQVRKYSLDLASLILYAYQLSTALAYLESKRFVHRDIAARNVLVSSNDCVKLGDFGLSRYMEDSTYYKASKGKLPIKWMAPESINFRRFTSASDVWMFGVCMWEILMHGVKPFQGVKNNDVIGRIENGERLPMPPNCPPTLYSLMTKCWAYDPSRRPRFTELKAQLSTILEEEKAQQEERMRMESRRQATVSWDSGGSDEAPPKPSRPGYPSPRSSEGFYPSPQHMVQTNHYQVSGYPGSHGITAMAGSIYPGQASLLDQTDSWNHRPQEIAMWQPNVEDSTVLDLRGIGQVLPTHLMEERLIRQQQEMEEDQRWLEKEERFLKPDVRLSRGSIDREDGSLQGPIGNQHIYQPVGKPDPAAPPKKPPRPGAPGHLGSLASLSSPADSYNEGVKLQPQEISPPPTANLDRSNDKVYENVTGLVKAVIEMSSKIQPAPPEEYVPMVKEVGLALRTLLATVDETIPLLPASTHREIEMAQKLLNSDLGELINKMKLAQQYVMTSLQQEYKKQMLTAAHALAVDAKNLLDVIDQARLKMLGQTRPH
Chain of ALK(h) (Q9UM73 19-1620): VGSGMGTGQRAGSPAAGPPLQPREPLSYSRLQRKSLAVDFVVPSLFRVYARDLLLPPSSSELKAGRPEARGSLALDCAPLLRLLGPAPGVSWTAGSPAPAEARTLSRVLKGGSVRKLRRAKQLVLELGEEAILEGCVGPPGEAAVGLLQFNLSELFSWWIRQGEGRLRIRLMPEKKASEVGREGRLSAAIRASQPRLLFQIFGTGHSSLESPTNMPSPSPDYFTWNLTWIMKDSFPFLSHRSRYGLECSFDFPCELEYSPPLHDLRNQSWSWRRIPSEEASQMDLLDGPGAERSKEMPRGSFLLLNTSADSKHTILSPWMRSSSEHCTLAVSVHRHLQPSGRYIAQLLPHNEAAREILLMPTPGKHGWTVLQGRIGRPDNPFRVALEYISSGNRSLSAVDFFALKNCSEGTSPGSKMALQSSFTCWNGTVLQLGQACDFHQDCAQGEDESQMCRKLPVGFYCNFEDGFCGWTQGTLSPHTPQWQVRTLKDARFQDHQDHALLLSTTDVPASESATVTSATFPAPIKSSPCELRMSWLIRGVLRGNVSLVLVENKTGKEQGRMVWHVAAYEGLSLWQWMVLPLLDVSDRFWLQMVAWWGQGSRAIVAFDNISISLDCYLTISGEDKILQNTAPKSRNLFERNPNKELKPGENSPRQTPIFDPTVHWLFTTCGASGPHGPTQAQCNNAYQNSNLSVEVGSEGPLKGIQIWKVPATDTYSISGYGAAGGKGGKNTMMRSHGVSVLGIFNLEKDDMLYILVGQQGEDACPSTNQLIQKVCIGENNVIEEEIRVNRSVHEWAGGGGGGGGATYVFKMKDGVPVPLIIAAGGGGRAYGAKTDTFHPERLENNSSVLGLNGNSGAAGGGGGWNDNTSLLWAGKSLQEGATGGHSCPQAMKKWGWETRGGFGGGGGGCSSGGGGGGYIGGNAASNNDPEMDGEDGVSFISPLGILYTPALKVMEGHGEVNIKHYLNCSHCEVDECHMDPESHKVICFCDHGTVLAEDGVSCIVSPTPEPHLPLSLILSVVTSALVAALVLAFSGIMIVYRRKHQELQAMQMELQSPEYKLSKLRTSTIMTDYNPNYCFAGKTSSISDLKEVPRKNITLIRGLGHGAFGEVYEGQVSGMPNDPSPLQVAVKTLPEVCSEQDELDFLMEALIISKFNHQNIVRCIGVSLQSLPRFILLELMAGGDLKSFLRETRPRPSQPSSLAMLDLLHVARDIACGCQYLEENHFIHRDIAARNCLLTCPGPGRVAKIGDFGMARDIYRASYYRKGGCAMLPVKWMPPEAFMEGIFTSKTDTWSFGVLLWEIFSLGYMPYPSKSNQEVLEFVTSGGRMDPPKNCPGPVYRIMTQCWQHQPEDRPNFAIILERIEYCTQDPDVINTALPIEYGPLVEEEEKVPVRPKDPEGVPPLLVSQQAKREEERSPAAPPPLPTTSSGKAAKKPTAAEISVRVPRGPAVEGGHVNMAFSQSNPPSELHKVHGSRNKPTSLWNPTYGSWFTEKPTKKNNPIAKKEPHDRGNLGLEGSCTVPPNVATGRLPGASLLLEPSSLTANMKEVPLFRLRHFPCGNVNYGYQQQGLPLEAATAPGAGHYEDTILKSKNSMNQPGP

As for FAKLAARLYRKALARQLGVAA [MMI-0300], the “% activity” value in test [1] was determined as 19%; in test [2], 71%; in test [3], 86%; in test [4] it was 98%; in test [5], 68%; in [6], 132%. Besides, in [7], the “% activity” value is listed as 56%.

With “HRRIKAWLKKIKALARQLGVAA (Mammal) [MMI-0500]”, the “% activity” value in [1] is on record as 12%; in [2], 35%; in test [3], 29%; in test [8] it was 45%; in [9], 94%; in test [4], 81%. Moreover, the “% activity” value in [10] turned out to be 45%; in test [5] it was 7%; in [6], 96%; in [7], 33%.

On to KAFAKLAARLYRKALARQLGVAA [MMI-0400], for which the “% activity” value in test [1] was determined as 16%; in test [2] it was 87%; in test [3], 78%; in test [8] it was 26%; in test [9], 96%; in test [4] it was 96%. Also, the “% activity” value in test [10] turned out to be 98%; in [5], 46%; in [6], 129%; in test [7], 29%.

Turning to YARAAARQARAKALARQLGVAA [MMI-0100], the “% activity” value in [1] was determined as 118%; in test [8], 62%; in test [5], 110%; in test [6] it was 135%; in test [7], 100%.

On to “YARAAARQARAKALNRQLGVA (Mammal) [MMI-0200]”, for which the “% activity” value in [1] is given as 95%; in [2], 108%; in test [8], 76%; in test [9] it was 110%; in [10] it was 101%; in test [5], 97%. Moreover, the “% activity” value in [6] is reported as 108%; in [7], 77%.

Source of the values: patent publication US20150258192A1, “COMPOSITIONS AND METHODS FOR PREVENTING OR TREATING CHRONIC LUNG ALLOGRAFT DYSFUNCTION (CLAD) AND IDIOPATHIC PULMONARY FIBROSIS (IPF)” (priority 2014, published 2015).
